Test results reported in patent publication US20180044434A1 (PUBLIC UNIVERSITY CORPORATION YOKOHAMA CITY UNIVERSITY, published 2018).
Substitutions are numbered along the chain they refer to.

B1: humanized anti-PAD4 antibody derived from H7, VH H4.00 / VL L4.15 (antibody, IgG1, V domains shown)
VH: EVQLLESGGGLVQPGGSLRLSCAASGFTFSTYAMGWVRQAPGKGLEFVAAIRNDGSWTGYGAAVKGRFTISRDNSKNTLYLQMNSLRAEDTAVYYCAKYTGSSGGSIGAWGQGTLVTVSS
VL: SYELTQPPSVSVSPGQTARITCSGGSGRYYYGWYQQKPGQAPVTVIYSSTHRPSGIPERFSGSNSGNTTTLTISGVQAEDEADYYCGTADSSSYVFGGGTKLTVLG
notes: IgG1 kappa; also called H7 H4.00/L4.15
B2: humanized anti-PAD4 antibody derived from G8, VH H4.00 / VL L4.06 (antibody, human IgG1, kappa, V domains shown)
VH: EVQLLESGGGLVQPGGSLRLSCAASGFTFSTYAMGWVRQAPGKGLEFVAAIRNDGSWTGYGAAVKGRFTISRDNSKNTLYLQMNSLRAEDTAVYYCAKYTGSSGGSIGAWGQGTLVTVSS
VL: SYELTQPPSVSVSPGQTARITCSGGNRNYYYGWYQQKPGQAPVTVIYANDKRPSGIPERFSGSYSGNTTTLTISGVQAEDEADYYCGTADTGKYVFGGGTKLTVLG
notes: IgG1 kappa; also called G8 H4.00/L4.06
B3: humanized anti-PAD4 antibody derived from G8, VH H4.00 / VL L4.17 (antibody, human IgG1, kappa, V domains shown)
VH: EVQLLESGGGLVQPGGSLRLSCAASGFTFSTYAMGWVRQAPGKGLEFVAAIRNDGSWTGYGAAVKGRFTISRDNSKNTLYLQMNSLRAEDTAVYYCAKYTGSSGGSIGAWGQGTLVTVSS
VL: B2 VL with Y64T
notes: IgG1 kappa; also called G8 H4.00/L4.17
B4: humanized anti-PAD4 antibody derived from H7, VH H4.00 / VL L4.00 (antibody, IgG1, V domains shown)
VH: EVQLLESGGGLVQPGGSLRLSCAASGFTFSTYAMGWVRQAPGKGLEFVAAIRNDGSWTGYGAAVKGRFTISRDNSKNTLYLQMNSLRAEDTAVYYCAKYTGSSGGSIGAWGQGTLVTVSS
VL: B1 VL with T44L, N64S, N67T, T69V
notes: IgG1 kappa; also called H7 H4.00/L4.00
B5: humanized anti-PAD4 antibody derived from H7, VH H4.00 / VL L4.06 (antibody, IgG1, V domains shown)
VH: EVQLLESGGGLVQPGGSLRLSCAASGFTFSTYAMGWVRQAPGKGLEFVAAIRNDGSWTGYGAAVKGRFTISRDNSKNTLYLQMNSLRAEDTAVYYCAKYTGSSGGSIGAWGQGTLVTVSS
VL: B1 VL with N64Y
notes: IgG1 kappa; also called H7 H4.00/L4.06
B6: humanized anti-PAD4 antibody derived from H7, VH H4.00 / VL L4.17 (antibody, IgG1, V domains shown)
VH: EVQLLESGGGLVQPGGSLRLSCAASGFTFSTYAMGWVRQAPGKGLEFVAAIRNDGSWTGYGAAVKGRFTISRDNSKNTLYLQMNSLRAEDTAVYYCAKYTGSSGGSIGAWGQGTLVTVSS
VL: B1 VL with N64T
notes: IgG1 kappa; also called H7 H4.00/L4.17
B7: humanized anti-PAD4 antibody derived from H7, VH H4.15 / VL L4.00 (antibody, IgG1, V domains shown)
VH: EVQLLESGGGLVQPGGSLRLSCAASGFTFSTYAMGWVRQAPGKGLEFVSAIRNDGSWTGYGAAVKGRFTISRDNSKNTVYLQMNSLRAEDTAVYYCAKYTGSSGGSIGAWGQGTLVTVSS
VL: B1 VL with T44L, N64S, N67T, T69V
notes: IgG1 kappa; also called H7 H4.15/L4.00
B8: humanized anti-PAD4 antibody derived from H7, VH H4.15 / VL L4.06 (antibody, IgG1, V domains shown)
VH: B7 VH
VL: B1 VL with N64Y
notes: IgG1 kappa; also called H7 H4.15/L4.06
B9: humanized anti-PAD4 antibody derived from H7, VH H4.15 / VL L4.15 (antibody, IgG1, V domains shown)
VH: B7 VH
VL: B1 VL
notes: IgG1 kappa; also called H7 H4.15/L4.15
B10: humanized anti-PAD4 antibody derived from H7, VH H4.15 / VL L4.17 (antibody, IgG1, V domains shown)
VH: B7 VH
VL: B1 VL with N64T
notes: IgG1 kappa; also called H7 H4.15/L4.17
B11: humanized anti-PAD4 antibody derived from H7, VH H4.32 / VL L4.00 (antibody, IgG1, V domains shown)
VH: B7 VH with S49A, F68V
VL: B1 VL with T44L, N64S, N67T, T69V
notes: IgG1 kappa; also called H7 H4.32/L4.00
B12: humanized anti-PAD4 antibody derived from H7, VH H4.32 / VL L4.06 (antibody, IgG1, V domains shown)
VH: B7 VH with S49A, F68V
VL: B1 VL with N64Y
notes: IgG1 kappa; also called H7 H4.32/L4.06
B13: humanized anti-PAD4 antibody derived from H7, VH H4.32 / VL L4.15 (antibody, IgG1, V domains shown)
VH: B7 VH with S49A, F68V
VL: B1 VL
notes: IgG1 kappa; also called H7 H4.32/L4.15
B14: humanized anti-PAD4 antibody derived from H7, VH H4.32 / VL L4.17 (antibody, IgG1, V domains shown)
VH: B7 VH with S49A, F68V
VL: B1 VL with N64T
notes: IgG1 kappa; also called H7 H4.32/L4.17
B15: humanized anti-PAD4 antibody derived from G8, VH H4.15 / VL L4.00 (antibody, human IgG1, kappa, V domains shown)
VH: B7 VH
VL: B2 VL with T44L, Y64S, N67T, T69V
notes: IgG1 kappa; also called G8 H4.15/L4.00
B16: humanized anti-PAD4 antibody derived from G8, VH H4.15 / VL L4.06 (antibody, human IgG1, kappa, V domains shown)
VH: B7 VH
VL: B2 VL
notes: IgG1 kappa; also called G8 H4.15/L4.06
B17: humanized anti-PAD4 antibody derived from G8, VH H4.15 / VL L4.17 (antibody, human IgG1, kappa, V domains shown)
VH: B7 VH
VL: B2 VL with Y64T
notes: IgG1 kappa; also called G8 H4.15/L4.17
B18: humanized anti-PAD4 antibody derived from G8, VH H4.15 / VL L4.29 (antibody, human IgG1, kappa, V domains shown)
VH: B7 VH
VL: B2 VL with Y64N, N67S
notes: IgG1 kappa; also called G8 H4.15/L4.29
B19: humanized anti-PAD4 antibody derived from G8, VH H4.32 / VL L4.00 (antibody, IgG1, V domains shown)
VH: B7 VH with S49A, F68V
VL: B2 VL with T44L, Y64S, N67T, T69V
notes: IgG1 kappa; also called G8 H4.32/L4.00
B20: humanized anti-PAD4 antibody derived from G8, VH H4.32 / VL L4.06 (antibody, IgG1, V domains shown)
VH: B7 VH with S49A, F68V
VL: B2 VL
notes: IgG1 kappa; also called G8 H4.32/L4.06
B21: humanized anti-PAD4 antibody derived from G8, VH H4.32 / VL L4.17 (antibody, IgG1, V domains shown)
VH: B7 VH with S49A, F68V
VL: B2 VL with Y64T
notes: IgG1 kappa; also called G8 H4.32/L4.17

biological target: T1, full-length recombinant human PAD4 (human, UniProt Q9UM07 1-663); assay: ELISA, immobilized human PAD4
T1 construct: Full-length recombinant; also called peptidylarginine deiminase 4
T1 sequence (Q9UM07 whole entry): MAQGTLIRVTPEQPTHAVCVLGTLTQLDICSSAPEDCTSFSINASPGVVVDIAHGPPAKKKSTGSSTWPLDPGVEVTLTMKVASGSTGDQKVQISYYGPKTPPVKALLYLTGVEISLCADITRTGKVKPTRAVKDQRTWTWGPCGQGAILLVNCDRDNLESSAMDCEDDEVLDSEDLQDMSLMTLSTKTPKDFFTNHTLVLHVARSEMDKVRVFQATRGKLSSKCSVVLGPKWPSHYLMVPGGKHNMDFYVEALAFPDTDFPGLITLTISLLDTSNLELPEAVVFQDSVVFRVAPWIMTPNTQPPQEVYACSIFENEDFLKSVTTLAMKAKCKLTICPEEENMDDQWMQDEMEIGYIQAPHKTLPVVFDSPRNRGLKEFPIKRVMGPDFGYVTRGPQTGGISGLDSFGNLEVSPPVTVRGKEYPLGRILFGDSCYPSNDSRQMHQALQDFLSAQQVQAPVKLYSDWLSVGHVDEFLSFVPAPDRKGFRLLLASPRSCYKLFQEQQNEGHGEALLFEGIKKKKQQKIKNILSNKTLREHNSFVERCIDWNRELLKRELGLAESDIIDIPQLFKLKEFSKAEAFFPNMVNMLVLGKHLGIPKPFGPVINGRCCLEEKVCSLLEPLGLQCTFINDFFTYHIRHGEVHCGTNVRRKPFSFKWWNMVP

Binder | O.D. 490/630 at 0.0078125 µg/mL | O.D. 490/630 at 0.015625 µg/mL | O.D. 490/630 at 0.03125 µg/mL | O.D. 490/630 at 0.0625 µg/mL | O.D. 490/630 at 0.125 µg/mL | O.D. 490/630 at 0.25 µg/mL | O.D. 490/630 at 0.5 µg/mL | O.D. 490/630 at 1 µg/mL
B1 | 1.31 | 1.71 | 1.89 | 1.92 | 1.87 | 1.89 | 1.87 | 1.86
B2 | 1.22 | 1.64 | 1.83 | 1.95 | 1.85 | 1.81 | 1.83 | 1.8
B3 | 1.31 | 1.62 | 1.84 | 1.89 | 1.82 | 1.81 | 1.8 | 1.8
B4 | 0.441 | 0.752 | 1.21 | 1.72 | 1.88 | 1.89 | 1.91 | 1.92
B5 | 1.26 | 1.75 | 1.9 | 2 | 1.87 | 1.89 | 1.86 | 1.86
B6 | 1.3 | 1.71 | 1.85 | 1.91 | 1.87 | 1.86 | 1.85 | 1.86
B7 | 0.429 | 0.764 | 1.23 | 1.71 | 1.84 | 1.9 | 1.88 | 1.86
B8 | 1.22 | 1.68 | 1.82 | 1.83 | 1.84 | 1.82 | 1.82 | 1.84
B9 | 1.25 | 1.65 | 1.82 | 1.87 | 1.83 | 1.84 | 1.83 | 1.82
B10 | 1.31 | 1.63 | 1.81 | 1.9 | 1.81 | 1.81 | 1.82 | 1.77
B11 | 0.389 | 0.713 | 1.17 | 1.65 | 1.77 | 1.85 | 1.81 | 1.82
B12 | 1.22 | 1.64 | 1.9 | 1.94 | 1.82 | 1.86 | 1.81 | 1.77
B13 | 1.34 | 1.77 | 1.89 | 1.94 | 1.87 | 1.84 | 1.78 | 1.79
B14 | 1.28 | 1.77 | 1.95 | 1.98 | 1.86 | 1.86 | 1.81 | 1.79
B15 | 0.707 | 1.11 | 1.52 | 1.84 | 1.87 | 1.87 | 1.86 | 1.85
B16 | 1.31 | 1.68 | 1.9 | 1.92 | 1.91 | 1.87 | 1.79 | 1.77
B17 | 1.24 | 1.66 | 1.86 | 1.93 | 1.87 | 1.81 | 1.82 | 1.83
B18 | 1.15 | 1.56 | 1.85 | 1.91 | 1.86 | 1.86 | 1.81 | 1.84
B19 | 0.364 | 0.649 | 1.05 | 1.52 | 1.76 | 1.84 | 1.91 | 1.87
B20 | 1.21 | 1.6 | 1.82 | 1.91 | 1.86 | 1.85 | 1.81 | 1.79
B21 | 1.2 | 1.56 | 1.83 | 1.88 | 1.89 | 1.83 | 1.83 | 1.82
